Results from patent publication US10494417B2, “Peptide inhibitors of BCR-ABL oligomerization” (University of Utah Research Foundation, priority 2014, dated 2019).
“And” between values parts separate entries of the source, which are not always exact repeats. Identical values can stand only once. “Also recorded” adds a separate entry of the source.

Assays:
K562 cells = assay: Colony forming assay of protein-treated K562 cells; type: cell-based, human; details: proteins 30 μM, imatinib 1.0 μM; colonies counted after 7 days
Protocol: This experiment was carried out as before with the modifications noted below. […] 1×10^3 cells (in 1.1 mL) were seeded in a 6-well plate (CellStar), in duplicate for each treatment. 7 days after seeding cells, colonies were counted in a […] area per well. Independent treatments were tested 3 times in duplicate (n=3). All reagents for the CFA were purchased from Stem Cell Technologies, Vancouver, BC, Canada.

[1] = system: Ba/F3 cells expressing BCR-ABL1E255V/T315I; assay: Annexin V/7-AAD apoptosis assay in Ba/F3 BCR-ABL1 E255V/T315I cells; type: cell-based, mouse; details: 72 h, CCmut3 vs EV
Protocol: (§1) For analysis of apoptosis and cell death, cells were pelleted and resuspended in Annexin V-binding buffer (BD Biosciences), stained with anti-Annexin V-APC (BD Biosciences or Life Technologies) and 7-AAD (BD Biosciences or Life Technologies) and analyzed on a BD FACSCanto flow cytometer. In addition to the APC and 7-AAD channels, GFP- and mCherry-positive cells were also recorded.
as §1, with “apoptosis and necrotic cell death,” for “apoptosis and cell death,”, “anti-Annexin V-APC and 7-AAD” for “anti-Annexin V-APC (BD Biosciences or Life Technologies) and 7-AAD”

Ba/F3-P210 cells = assay: Viability of transfected Ba/F3-p210 cells (trypan blue exclusion); type: cell-based, mouse; details: 72 h following transfection, vs mCherry control, n=1
Protocol: Two days following cell passaging, 3.0×10^6 cells were collected by centrifugation at 750×g for 10 min for each transfection group. Following collection, 4 μg DNA was transfected into cells according to the Cell Line Nucleofector® Kit V protocol (program X-001) using the Amaxa Nuelcofector II. Following nucleofection, the DNA/cell mixture was added to 500 μL plain RPMI and incubated for 20 min. After incubation, the 500 μL cell/DNA/RPMI mixture was added to complete RPMI 1640 media and allowed to incubate at 37° C. for 72 h until analysis.
Forty-eight or 72 h following transfection, 100 μL of treated K562 or Ba/F3-p210 cells was mixed with 100 μL trypan blue solution (Life Technologies). The numbers of viable cells (those impermeable to the trypan blue dye) from four different quadrants in an INCYTO™ C-CHIP™ Neubauer hemacytometer (VWR International, Radnor, Pa., USA) were counted using a standard light microscope. Quadrant counts were then averaged to obtain the number of viable cells per mL. For experiments using the Helix2mut3 construct, counts were performed on one aliquot per transfection (n=3 in replicate). In experiments involving the CappedHelix2mut3 construct, counts were performed three times using separate 100 pt aliquots from one transfection (n=1 in triplicate).

[2] = system: Ba/F3 cells expressing BCR-ABL1E255V; assay: Colony forming assay of Ba/F3 BCR-ABL1 E255V cells; type: cell-based, mouse; details: for colony formation, in words: CCmut3 gene delivery (transfection; b502 lentiviral infection) vs EV; for reduction in CFCs / colony forming ability: CCmut3 vs EV
Protocol: Following selection of transfected cells by cell sorting, viable cells were enumerated and seeded into methylcellulose as described previously (Dixon, A. S., et al. (2011) J. Biol. Chem. 286, 27751-27760). Briefly, mCherry-positive Ba/F3 cells were re-suspended in IMDM with 2% FBS (Stem Cell Technologies) at a concentration of 10,000 cells/mL. Three hundred microliters of this dilution was added to 3 mL of Methocult media (M3434—Ba/F3 p210 wild-type and mutant lines or M3234—Ba/F3 parental, Stem Cell Technologies). Approximately 1100 cells, or 1.2 mL, were seeded per dish in duplicate for each transfection. Colonies were counted 7 days later in an area of […] per dish.
Following selection of transfected cells by cell sorting, methylcellulose colony assays were performed by plating in 0.9% methylcellulose (Stem Cell Technologies; M3234 for Ba/F3 BCR-ABL1 native and mutant lines; M3434 for Ba/F3 parental cells; H4230 for CML patient samples). mCherry-positive Ba/F3 cells (1.1×10^3 cells/plate) or GFP-positive primary CML CD34+ cells (1×10^3 cells/plate) were seeded per dish in duplicate. In the case of CML patient samples, cells were plated in the presence of 1× StemSpan CC100 cytokine cocktail (StemCell Technologies). All cells were plated with or without the indicated TKI in three or more independent experiments. Plates were incubated at 37° C. in a 5% CO2 humidified incubator. Colonies were counted 7-14 days later in an area of 50 μm2 per dish using an inverted microscope.

[3] = system: CML CD34+ cells expressing BCR-ABL1T315I; assay: Colony forming assay of primary CML CD34+ cells expressing BCR-ABL1T315I (samples R1, R2); type: cell-based, human
Protocol: Mononuclear cells (MNCs) were separated from the peripheral blood of patients with newly diagnosed or therapy-resistant CML with a documented T315I mutation, using Ficoll (Nycomed, Oslo, Norway). Isolation of the CD34^+ fraction was done on an autoMACS Pro (Miltenyi Biotech). […] Cells were infected with lentivirus at a multiplicity of infection (MOI) of 5 for each construct at 24 and 48 hours following harvest (fresh cells) or thaw (frozen cells). Cells were sorted on a BD FACSAria cytometer after 72 h, and GFP-positive cells were returned to culture medium for future experiments. All patients gave their informed consent in accordance with the Declaration of Helsinki, and all studies with human specimens were approved by The University of Utah Institutional Review Board (IRB).
Briefly, lentivirus-infected (GFP^+) cells were isolated by FACS and resuspended in RPMI1640. […] Plates were incubated at 37° C. in a 5% CO2 humidified incubator for 14 days. Colony forming units of granulocyte-macrophage (CFU-GM) were counted on day 14 using an inverted microscope.
All cells were plated with or without the indicated TKI in three or more independent experiments. Plates were incubated at 37° C. in a 5% CO2 humidified incubator. Colonies were counted 7-14 days later in an area of 50 μm2 per dish using an inverted microscope.

Ba/F3-p210-T315I cells = assay: Annexin V/7-AAD apoptosis assay in Ba/F3 BCR-ABL1 T315I cells; type: cell-based, mouse; details: 72 h, CCmut3 vs EV
Protocol: Assays were run in triplicate (n=3).
as §1
as §1, with “apoptosis and necrotic cell death,” for “apoptosis and cell death,”, “anti-Annexin V-APC and 7-AAD” for “anti-Annexin V-APC (BD Biosciences or Life Technologies) and 7-AAD”

[4] = sample R1 (accelerated phase), lentiviral CCmut3 or 10 nM ponatinib vs EV

B1: CCmut3: modified Bcr-Abl coiled-coil domain (residues 1-72) with mutations C38A, K39E, S41R, L45D, E48R, Q60E (protein)
chain: MVDPVGFAEAWKAQFPDSEPPRMELRSVGDIEQELERAEARIRRDEQRVNQERFRMIYLETLLAKEKKSYDR
- colony forming (transformative ability) (K562 cells): ineffective at reducing cell proliferation and colony forming compared to untreated cells
- apoptosis, in words [1]: Enhanced apoptosis; also recorded: effectively induced apoptosis
- apoptosis, in words ([1]; listed as CC^mut3): significantly more apoptotic; also recorded: sensitive
- proliferation/viability of Ba/F3-p210 cells (Ba/F3-P210 cells): replicated to a similar extent
- colony formation, in words [2]: significantly fewer colonies per unit area
- colony formation, in words ([2]; listed as CC^mut3): Inhibition in colony formation
- reduction in CFCs / colony forming ability [2]: > 10 fold
- reduction in CFCs / colony forming ability ([2]; listed as CC^mut3): more than 10 fold
- colony formation, in words [3, 4]: even greater sensitivity to transduction with CCmut3
- reduction of colony formation [3, 4]: 76%
- colony formation, in words ([3]; sample R1 (accelerated phase), lentiviral CCmut3 or 10 nM ponatinib vs EV, listed as CC^mut3): reduced colony formation to a similar degree
- colony formation, in words ([3]; sample R2 (blast crisis, after ponatinib failure), lentiviral CCmut3 or ponatinib vs EV): only minimal activity
- colony formation, in words ([3]; sample R2 (blast crisis, after ponatinib failure), lentiviral CCmut3 or ponatinib vs EV, listed as CC^mut3): insensitive
- reduction of colony formation ([3]; sample R2 (blast crisis, after ponatinib failure), lentiviral CCmut3 vs EV): ~25%
- apoptosis, in words (Ba/F3-p210-T315I cells): increase of apoptosis
- increase in apoptosis (Ba/F3-p210-T315I cells): 6-8 fold and > 5 fold
- apoptosis, in words (Ba/F3-p210-T315I cells; listed as CC^mut3): significant shift toward the apoptotic fraction
- increase in apoptosis (Ba/F3-p210-T315I cells; listed as CC^mut3): 6-8 fold
